Laboratory results published in patent US20230158141A1 (YAFEI SHANGHAI BIOLOG MEDICINE SCIENCE AND TECHNOLOGY, published 2023).
Residue numbers refer to the chain shown, from its start. Names may count otherwise.

B1: anti-PD-1 antibody 2 HC Gly10Cys (antibody, human IgG4 S228P, kappa, V domains shown)
VH: QVQLVESGGCVVQPGRSLRLDCKASGITFSNSGMHWVRQAPGKGLEWVAVIWYDGSKRYYADSVKGRFTISRDNSKNTLFLQMNSLRAEDTAVYYCATNDDYWGQGTLVTVSS
VL: EIVLTQSPATLSLSPGERATLSCRASQSVSSYLAWYQQKPGQAPRLLIYDASNRATGIPARFSGSGSGTDFTLTISSLEPEDFAVYYCQQSSNWPRTFGQGTKVEIKR
modifications: arm on Cys10 as named in each row
B2: IL-10 Arg24Cys-R4-20 (ligand, human, UniProt P22301 19-178, looked up)
chain: SPGQGTQSENSCTHFPGNLPNMLCDLRDAFSRVKTFFQMKDQLDNLLLKESLLEDFKGYLGCQALSEMIQFYLEEVMPQAENQDPDIKAHVNSLGENLKTLRLRLRRCHRFLPCENKSKAVEQVKNAFNKLQEKGIYKAMSEFDIFINYIEAYMTMKIRN
modifications: R4-20 on Cys 24
notes: mature
B3: IL-10 Ser31Cys-R4-2 (ligand, human, UniProt P22301 19-178, looked up)
chain: B2 chain with C24R, S31C
modifications: R4-2 on Cys 31
notes: mature
B4: IL-10 Arg32Cys-R4-7 (ligand, human, UniProt P22301 19-178, looked up)
chain: B2 chain with C24R, R32C
modifications: R4-7 on Cys 32
notes: mature
B5: IL-10 Lys34Cys-R4-7 (ligand, human, UniProt P22301 19-178, looked up)
chain: B2 chain with C24R, K34C
modifications: R4-7 on Cys 34
notes: mature
B6: IL-10 Asn97Cys-R4-18 (ligand, human, UniProt P22301 19-178, looked up)
chain: B2 chain with C24R, N97C
modifications: R4-18 on Cys 97
notes: mature
B7: IL-10 His90Cys-S48 (ligand, human, UniProt P22301 19-178, looked up)
chain: B2 chain with C24R, H90C
modifications: S48 on Cys 90
notes: mature
B8: IL-10 Arg32Cys-S48 (ligand, human, UniProt P22301 19-178, looked up)
chain: B2 chain with C24R, R32C
modifications: S48 on Cys 32
notes: mature
B9: IL-10 Arg104Cys-S48 (ligand, human, UniProt P22301 19-178, looked up)
chain: B2 chain with C24R, R104C
modifications: S48 on Cys 104
notes: mature
B10: IL-10 His90Cys-R4-19 (ligand, human, UniProt P22301 19-178, looked up)
chain: B2 chain with C24R, H90C
modifications: R4-19 on Cys 90
notes: mature
B11: IL-10 Thr100Cys-S48 (ligand, human, UniProt P22301 19-178, looked up)
chain: B2 chain with C24R, T100C
modifications: S48 on Cys 100
notes: mature
B12: IL-10 Asp25Cys-S48 (ligand, human, UniProt P22301 19-178, looked up)
chain: B2 chain with C24R, D25C
modifications: S48 on Cys 25
notes: mature
B13: IL-10 Asn18Cys-R4-18 (ligand, human, UniProt P22301 19-178, looked up)
chain: B2 chain with N18C, C24R
modifications: R4-18 on Cys 18
notes: mature
B14: IL-10 Arg104Cys-R4-20 (ligand, human, UniProt P22301 19-178, looked up)
chain: B2 chain with C24R, R104C
modifications: R4-20 on Cys 104
notes: mature
B15: IL-10 Thr100Cys-R4-7 (ligand, human, UniProt P22301 19-178, looked up)
chain: B2 chain with C24R, T100C
modifications: R4-7 on Cys 100
notes: mature
B16: IL-10 Lys119Cys-R4-7 (ligand, human, UniProt P22301 19-178, looked up)
chain: B2 chain with C24R, K119C
modifications: R4-7 on Cys 119
notes: mature
B17: IL-10 Asn21Cys-R4-18 (ligand, human, UniProt P22301 19-178, looked up)
chain: B2 chain with N21C, C24R
modifications: R4-18 on Cys 21
notes: mature
B18: IL-10 Thr35Cys-S48 (ligand, human, UniProt P22301 19-178, looked up)
chain: B2 chain with C24R, T35C
modifications: S48 on Cys 35
notes: mature
B19: IL-10 Lys119Cys-S48 (ligand, human, UniProt P22301 19-178, looked up)
chain: B2 chain with C24R, K119C
modifications: S48 on Cys 119
notes: mature
B20: IL-10 Arg107Cys-S48 (ligand, human, UniProt P22301 19-178, looked up)
chain: B2 chain with C24R, R107C
modifications: S48 on Cys 107
notes: mature
B21: IL-10 Asn21Cys-S48 (ligand, human, UniProt P22301 19-178, looked up)
chain: B2 chain with N21C, C24R
modifications: S48 on Cys 21
notes: mature
B22: IL-10 Lys34Cys-S48 (ligand, human, UniProt P22301 19-178, looked up)
chain: B2 chain with C24R, K34C
modifications: S48 on Cys 34
notes: mature; also called IL10-K34C-S48
B23: IL-10 Met22Cys-S48 (ligand, human, UniProt P22301 19-178, looked up)
chain: B2 chain with M22C, C24R
modifications: S48 on Cys 22
notes: mature
B24: IL-10 Met22Cys-R4-1 (ligand, human, UniProt P22301 19-178, looked up)
chain: B2 chain with M22C, C24R
modifications: R4-1 on Cys 22
notes: mature
B25: IL-10 Arg24Cys-S48 (ligand, human, UniProt P22301 19-178, looked up)
chain: B2 chain
modifications: S48 on Cys 24
notes: mature
B26: IL-10 Lys130Cys-S48 (ligand, human, UniProt P22301 19-178, looked up)
chain: B2 chain with C24R, K130C
modifications: S48 on Cys 130
notes: mature
B27: IL-10 Arg107Cys-R4-20 (ligand, human, UniProt P22301 19-178, looked up)
chain: B2 chain with C24R, R107C
modifications: R4-20 on Cys 107
notes: mature
B28: IL-10 Asn18Cys-S48 (ligand, human, UniProt P22301 19-178, looked up)
chain: B2 chain with N18C, C24R
modifications: S48 on Cys 18
notes: mature
B29: IL-10 Ser31Cys-S48 (ligand, human, UniProt P22301 19-178, looked up)
chain: B2 chain with C24R, S31C
modifications: S48 on Cys 31
notes: mature
B30: IL-10 Lys130Cys-R4-7 (ligand, human, UniProt P22301 19-178, looked up)
chain: B2 chain with C24R, K130C
modifications: R4-7 on Cys 130
notes: mature
B31: IL-10 Asn97Cys-S48 (ligand, human, UniProt P22301 19-178, looked up)
chain: B2 chain with C24R, N97C
modifications: S48 on Cys 97
notes: mature
B32: IL-10 Phe15Cys-S48 (ligand, human, UniProt P22301 19-178, looked up)
chain: B2 chain with F15C, C24R
modifications: S48 on Cys 15
notes: mature
B33: IL-10 Phe36Cys-S48 (ligand, human, UniProt P22301 19-178, looked up)
chain: B2 chain with C24R, F36C
modifications: S48 on Cys 36
notes: mature
B34: IL-10 Phe36Cys-R4-8 (ligand, human, UniProt P22301 19-178, looked up)
chain: B2 chain with C24R, F36C
modifications: R4-8 on Cys 36
notes: mature
B35: IL-10 Val33Cys-R4-7 (ligand, human, UniProt P22301 19-178, looked up)
chain: B2 chain with C24R, V33C
modifications: R4-7 on Cys 33
notes: mature
B36: IL-10 Lys99Cys-S48 (ligand, human, UniProt P22301 19-178, looked up)
chain: B2 chain with C24R, K99C
modifications: S48 on Cys 99
notes: mature
B37: IL-10 Thr35Cys-R4-5 (ligand, human, UniProt P22301 19-178, looked up)
chain: B2 chain with C24R, T35C
modifications: R4-5 on Cys 35
notes: mature
B38: IL-10 Val33Cys-S48 (ligand, human, UniProt P22301 19-178, looked up)
chain: B2 chain with C24R, V33C
modifications: S48 on Cys 33
notes: mature

Biological target: PD-1 (UniProt Q15116 25-167, limits assumed)
Experiment: ELISA; S9 on the Cys

PD-1, sequence (Q15116 25-167 limits assumed): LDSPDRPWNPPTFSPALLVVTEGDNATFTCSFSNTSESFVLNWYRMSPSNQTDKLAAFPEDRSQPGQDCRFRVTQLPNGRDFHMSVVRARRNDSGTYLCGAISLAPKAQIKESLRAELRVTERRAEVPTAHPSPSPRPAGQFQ

Binder	binding activity, % of wild type [%]
B1	69.3

Biological target: T1, IL-10R1-Fc (UniProt Q13651 22-235, limits assumed)
T1 sequence (looked up): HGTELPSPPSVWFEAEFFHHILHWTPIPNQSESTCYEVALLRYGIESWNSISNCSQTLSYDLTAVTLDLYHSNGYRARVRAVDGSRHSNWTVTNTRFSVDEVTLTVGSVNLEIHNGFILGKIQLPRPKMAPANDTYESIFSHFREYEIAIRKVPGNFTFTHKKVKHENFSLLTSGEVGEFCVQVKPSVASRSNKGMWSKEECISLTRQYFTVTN
Experiment: ELISA, IL-10R1-Fc coated

Binder	Binding recovery (>60%) [%]	Decreased fold of binding to ligand after Conjugating with S48 [fold]
B2	90	–
B3	125	–
B4	90.4	–
B5	99.6	–
B6	94.5	–
B7	–	8
B8	–	13
B9	–	3
B10	86.5	–
B11	–	4
B12	–	3
B13	92.3	–
B14	98.5	–
B15	99.3	–
B16	99	–
B17	99.7	–
B18	–	36
B19	–	3
B20	–	3
B21	–	7
B22	–	50
B23	–	5
B24	96.8	–
B25	–	33
B26	–	3
B27	99.5	–
B28	–	12
B29	–	39
B30	100	–
B31	–	5

Biological target: T2, IL-10R2-Fc/His (UniProt Q08334 20-220, limits assumed)
T2 sequence (looked up): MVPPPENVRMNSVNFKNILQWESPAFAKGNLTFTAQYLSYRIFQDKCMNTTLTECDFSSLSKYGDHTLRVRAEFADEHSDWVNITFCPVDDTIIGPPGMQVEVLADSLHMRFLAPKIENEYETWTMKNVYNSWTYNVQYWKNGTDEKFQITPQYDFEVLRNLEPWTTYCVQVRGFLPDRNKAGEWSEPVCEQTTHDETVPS
Experiment: ELISA, IL-10R2-Fc/His coated

Binder	Binding recovery (>60%) [%]	Decreased fold of binding to ligand after Conjugating with S48 [fold]
B2	98.1	–
B32	–	3
B3	87.4	–
B4	89.6	–
B5	97.3	–
B6	80.7	–
B7	–	7
B8	–	9
B9	–	6
B10	79	–
B11	–	8
B33	–	3
B12	–	5
B13	99.8	–
B14	96.6	–
B15	90.7	–
B34	79.6	–
B16	106	–
B17	85.3	–

Binder	Binding recovery (>60%) [%]	Decreased fold of binding to ligand after Conjugating with S48 [fold]
B18	–	6
B19	–	4
B35	91.4	–
B36	–	3
B37	123	–
B20	–	5
B21	–	6
B22	–	5
B23	–	6
B24	80	–
B25	–	9
B38	–	3
B26	–	3
B27	84	–
B28	–	4
B29	–	7
B30	99.7	–
B31	–	4
